# Tests used:
# [1] = molecular target: 6xHis-WDR5 (residues 23–334) (human, UniProt P61964 23-334); assay: pull-down
# [2] = molecular target: T1, WDR5_(23–334) (human, UniProt P61964 23-334); assay: ITC
# [3] = molecular target: T1, WDR5_(23–334); assay: SEC
binder,measurement,setting,value
KANSL1_(537–773) (domain or fragment) KSCGALRPVNGVINTLQPVLADHIPGDSSDAEEQLHKKQRLNLVSSSSDGTCVAARTRPVLSCKKRRLVRPNSIVPLSKKVHRNSTIRPGCDVNPSCALCGSGSINTMPPEIHYEAPLLERLSQLDSCVHPVLAFPDDVPTSLHFQSMLKSQWQNKPFDKIKPPKKLSLKHRAPMPGSLPDSARKDRHKLVSSFLTTAKLSHHQTRPDRTHRQHLDDVGAVPMVERVTAPKAERLLN,binding result,[1],binds
DGTCVAARTRPVLSY [KANSL1 WIN motif-containing peptide (585-DGTCVAARTRPVLS-598-Y)],Kd,[2],180 nM
KANSL2_(381–492) (domain or fragment) DDLEAGPMDLYLSAAELQPTESLPLEFSDDLDVVGDGMQCPPSPLLFDPSLTLEDHLVKEIAEDPVDILGQMQMAGDGCRSQGSRNSEKASAPLSQSGLATANGKPEPTSIS,binding result,[3],binds
